In patent CN106749656A (UNIV ZHENGZHOU NORMAL, dated 2017):

T1: 小鼠重组RCN3蛋白 (mouse, UniProt Q8BH97 21-328, limits assumed)
T1 construct: Recombinant mouse RCN3 used as coating antigen and in the Western blot; GST and BSA were run as control antigens; also called 小鼠RCN3蛋白; 重组小鼠RCN3蛋白
T1 sequence (looked up): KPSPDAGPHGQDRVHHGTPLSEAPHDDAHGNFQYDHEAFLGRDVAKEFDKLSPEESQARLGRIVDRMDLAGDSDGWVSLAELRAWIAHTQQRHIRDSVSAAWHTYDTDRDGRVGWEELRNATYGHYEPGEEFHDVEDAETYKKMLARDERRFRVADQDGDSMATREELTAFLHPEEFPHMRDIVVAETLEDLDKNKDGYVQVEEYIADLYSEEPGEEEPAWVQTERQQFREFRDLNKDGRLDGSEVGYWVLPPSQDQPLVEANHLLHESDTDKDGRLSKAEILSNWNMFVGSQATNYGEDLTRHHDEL


Legend:
小鼠重组RCN3蛋白 [1] = molecular target: T1, 小鼠重组RCN3蛋白; assay: phage ELISA, plate coated with 3 μg/mL mouse RCN3 (GST and BSA as controls), HRP anti-M13
小鼠重组RCN3蛋白 [2] = molecular target: T1, 小鼠重组RCN3蛋白; assay: ELISA, plate coated with 3 μg/mL mouse RCN3 (GST and BSA as controls), ScFv-Fc as first antibody, HRP goat anti-human IgG

Binder | binding result (小鼠重组RCN3蛋白 [1]) | binding result (小鼠重组RCN3蛋白 [2])
全人源抗小鼠RCN3蛋白单链ScFv抗体的噬菌体克隆 (scFv, The scFv stood on the surface of M13 phage in the assay; also called 单克隆噬菌体) scFv: ELQMTQSPSSLSASVGDRVTITCQASQDITYHLNWYQQKPGKAPKLLIYDASNLVTGVPSRFSGSGSGTDFTVTISSLQPEDFATYYCQHYYNRPPTFGQGTRLEIKGGSSRSSSSGGGGSGGGGQVQLVQSGGGVVQPGRSLRLSCAASGFTFSSYGMHWVRQAPGKGLEWVAVISYDGSNKYYADSVKGRFTISRDNSKNTLYLQMNSLRAEDTAVYYCARDLGTHAFDIWGQGTMVTVSS | binds | 
全人源抗小鼠RCN3带有Fc标签的单链ScFv抗体 (Fc fusion, also called ScFv-Fc抗体; 抗小鼠RCN3蛋白ScFv-Fc抗体; not shown: Fc tag from the eukaryotic expression vector pFUSERTL1) scFv: ELQMTQSPSSLSASVGDRVTITCQASQDITYHLNWYQQKPGKAPKLLIYDASNLVTGVPSRFSGSGSGTDFTVTISSLQPEDFATYYCQHYYNRPPTFGQGTRLEIKGGSSRSSSSGGGGSGGGGQVQLVQSGGGVVQPGRSLRLSCAASGFTFSSYGMHWVRQAPGKGLEWVAVISYDGSNKYYADSVKGRFTISRDNSKNTLYLQMNSLRAEDTAVYYCARDLGTHAFDIWGQGTMVTVSS |  | binds
